± gives the uncertainty stated by the source.
Assay: self-splicing fitness, log relative to wild type (ln ratio); higher = more splicing; Tetrahymena group I intron in knt gene, E. coli kanamycin selection, DiMSum; sequences stand for … in CUCUCU…GGAGGGAAAAGUUAUCAGGCAUGCACCUGGUAGCUAGUCUUUAAACCAAUAGAUUGCAUCGGUUUAAAAGGCAAGACCGUCAAAUUGCGGGAAAGGGGUCAACAGCCGUUCAGUACCAAGUCUCAGGGGAAACUUUGAGAUGGCCUUGCAAAGGGUAUGGUAAUAAGCUGACGGACAUGGUCCUAACCACGCAGCCAAGUCCUAAGUCAACAGAUCUUCUGUUGAUAUGGAUGCAGUUCACAGACUAAAUGUCGGUCGGGGAAGAUGUAUUCUUCUCAUAAGAUAUAGUCGGACCUCUCCUUAAUGGGAGCUAGCGGAUGAAGUGAUGCAACACUGGAGCCGCUGGGAACUAAUUUGUAUGCGAAAGUAUAUUGAUUAGUUUUGGAGUACUCGUGGUCG
Summary of the method: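 A randomised library covering all eight P1ex-region intron nucleotides was built with the intron in the knt kanamycin-resistance gene on pET-22b(+) and held in E. coli BL21(DE3). Cells were grown overnight at 37°C or 30°C on LB agar, with or without 25 μg/mL kanamycin, plus 100 μg/mL carbenicillin, 50 μM IPTG and 0.2% rhamnose, and pooled colonies were amplicon-sequenced on an Illumina HiSeq 2500. DiMSum fitness is the error-weighted combination of wild-type-normalised replicate fold changes, kanamycin versus none.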

Sequence | self-splicing fitness (ln) (30 °C) | self-splicing fitness (ln) (37 °C)
GAAUAGCAAUAUUACGUGUG | -2.23 ± 0.07 | -1.52 ± 0.073
ACGGAGCAAUAUUACGCUAC | -3.07 ± 0.33 | -2.06 ± 0.39
AAAUAGCAAUAUUACGUUUC | -3.46 ± 0.39 | 
GGAGAGCAAUAUUACGCAAG |  | -3.71 ± 0.46
AAAUAGCAAUAUUACGAUGU | -1.21 ± 0.078 | -0.875 ± 0.089
ACGGAGCAAUAUUACGAUGG | -3.63 ± 0.32 | -0.86 ± 0.27
GGUAAGCAAUAUUACGGCGU | 0.139 ± 0.13 | -0.0376 ± 0.15
AACGAGCAAUAUUACGAACU | -1.11 ± 0.13 | -1.42 ± 0.16
AAGCAGCAAUAUUACGAUUA | -1.4 ± 0.077 | -0.962 ± 0.066
UUGUAGCAAUAUUACGGCAU | -0.835 ± 0.096 | 0.641 ± 0.11
CUCCAGCAAUAUUACGCCAC | -2.7 ± 0.35 | 
UUGAAGCAAUAUUACGCGGA | -1.12 ± 0.12 | -0.506 ± 0.14
GUUUAGCAAUAUUACGCCCG | -3.02 ± 0.24 | -1.18 ± 0.24
UCAAAGCAAUAUUACGCUUG | -2.27 ± 0.14 | -2.58 ± 0.26
GUCGAGCAAUAUUACGUCGU | -0.515 ± 0.12 | -0.592 ± 0.17
UAAAAGCAAUAUUACGUGAA | -1.36 ± 0.082 | -1.06 ± 0.1
ACCUAGCAAUAUUACGCCGC | -2.21 ± 0.32 | -2.05 ± 0.4
GUUGAGCAAUAUUACGCUGA | -3.9 ± 0.35 | -2.61 ± 0.24
GUCUAGCAAUAUUACGUACU | -0.946 ± 0.11 | -0.0535 ± 0.1
GGAUAGCAAUAUUACGUAGC | -3.55 ± 0.2 | -1.06 ± 0.16
CGACAGCAAUAUUACGGGUG | -0.537 ± 0.043 | 0.0253 ± 0.063
GUUUAGCAAUAUUACGCUUA | -1.24 ± 0.15 | -0.129 ± 0.12
AAUUAGCAAUAUUACGUGAG | -1.71 ± 0.077 | -0.654 ± 0.1
UAUGAGCAAUAUUACGCCCA | -2.3 ± 0.27 | 0.171 ± 0.49
ACUCAGCAAUAUUACGGUCA | -1.11 ± 0.11 | -1.05 ± 0.1

Sequence | self-splicing fitness (ln) (30 °C) | self-splicing fitness (ln) (37 °C)
AAGUAGCAAUAUUACGACGU | -0.114 ± 0.059 | 0.403 ± 0.078
UGGCAGCAAUAUUACGAAUU | -3.42 ± 0.21 | -2.47 ± 0.22
CAACAGCAAUAUUACGUGAA | -1.36 ± 0.056 | -1.62 ± 0.1
GCGAAGCAAUAUUACGCCCG | -2.36 ± 0.31 | -1.68 ± 0.48
UGAUAGCAAUAUUACGCAAC | -3.43 ± 0.44 | 
UGCAAGCAAUAUUACGAGCG | -2.37 ± 0.092 | -0.896 ± 0.1
AGUGAGCAAUAUUACGAGGC | -3.83 ± 0.33 | -1.45 ± 0.17
GGCUAGCAAUAUUACGACAC | -0.572 ± 0.11 | 0.6 ± 0.16
ACUCAGCAAUAUUACGUAGA | -1.41 ± 0.066 | -0.457 ± 0.092
UUUAAGCAAUAUUACGGUAA | -1.08 ± 0.12 | -1.01 ± 0.096
GUAAAGCAAUAUUACGUAAU | -1.58 ± 0.073 | -0.314 ± 0.098
UCAAAGCAAUAUUACGUGCG | -1.13 ± 0.045 | -0.496 ± 0.064
UCACAGCAAUAUUACGUUAC | -3.74 ± 0.23 | -2.06 ± 0.16
UGACAGCAAUAUUACGUUCU | -0.552 ± 0.071 | -0.321 ± 0.089
UACGAGCAAUAUUACGUCGU | -4.08 ± 0.33 | 
GUUUAGCAAUAUUACGAUCA | -1.38 ± 0.31 | -0.619 ± 0.16
CCUAAGCAAUAUUACGCGAG | -4.48 ± 0.25 | -3.56 ± 0.23
GGUCAGCAAUAUUACGGCUG | -0.728 ± 0.078 | -0.439 ± 0.091
GUCGAGCAAUAUUACGUUAA |  | -2.06 ± 0.47
AGACAGCAAUAUUACGCAAA | -2.66 ± 0.18 | -1.37 ± 0.14
CAACAGCAAUAUUACGCGUA | -1.55 ± 0.093 | -1.06 ± 0.088
GAGAAGCAAUAUUACGGUUC | -2.91 ± 0.13 | -1.5 ± 0.13
UCAUAGCAAUAUUACGACGA | -0.24 ± 0.096 | -0.532 ± 0.11
CGUCAGCAAUAUUACGAGCC | -2.25 ± 0.48 | 
ACAAAGCAAUAUUACGGCCU | -0.338 ± 0.071 | 0.0409 ± 0.1

Sequence | self-splicing fitness (ln) (30 °C) | self-splicing fitness (ln) (37 °C)
UACUAGCAAUAUUACGAACA | -0.0493 ± 0.19 | -0.55 ± 0.15
CGCUAGCAAUAUUACGAACU | -0.352 ± 0.12 | -0.0958 ± 0.14
AACAAGCAAUAUUACGACUA | -0.0433 ± 0.095 | 0.555 ± 0.1
UCUCAGCAAUAUUACGCGUA | -1.04 ± 0.1 | -0.966 ± 0.1
GAACAGCAAUAUUACGCAUU | -1.67 ± 0.095 | -0.812 ± 0.12
ACUAAGCAAUAUUACGCGUG | -1.58 ± 0.098 | -0.684 ± 0.095
AUAGAGCAAUAUUACGGUGA | -1.49 ± 0.15 | -1.41 ± 0.19
GUCAAGCAAUAUUACGACGU | -1.26 ± 0.056 | 0.099 ± 0.07
CGGAAGCAAUAUUACGGCUA | -2.54 ± 0.46 | -0.623 ± 0.28
CGAGAGCAAUAUUACGGUGA | -3.9 ± 0.22 | -2.44 ± 0.2
CUAGAGCAAUAUUACGCUUC | -2.21 ± 0.42 | -1.97 ± 0.3
CCAUAGCAAUAUUACGAGAU | -3.81 ± 0.35 | -2.12 ± 0.21
CUUUAGCAAUAUUACGGGCC | -3.32 ± 0.16 | -2.64 ± 0.21
CCUAAGCAAUAUUACGAAGA | -1.82 ± 0.22 | -1.82 ± 0.22
AAUAAGCAAUAUUACGACCU | 0.104 ± 0.12 | 0.726 ± 0.16
GAGAAGCAAUAUUACGGUUU | -1.07 ± 0.099 | -1.21 ± 0.14
GCGAAGCAAUAUUACGGGCU | -2.68 ± 0.19 | -1.88 ± 0.17
GCACAGCAAUAUUACGUCCA | -0.954 ± 0.12 | -0.96 ± 0.11
ACCCAGCAAUAUUACGAAUU | -1.63 ± 0.075 | -0.951 ± 0.094
UAAGAGCAAUAUUACGAUGC | -3.73 ± 0.42 | -2.34 ± 0.33
UACCAGCAAUAUUACGUGUU | -3.72 ± 0.11 | -1.38 ± 0.078
CAGAAGCAAUAUUACGUCAA | -2.46 ± 0.27 | -2.24 ± 0.26
CUGAAGCAAUAUUACGCCUU | -4.07 ± 0.33 | -2.33 ± 0.31
CGUAAGCAAUAUUACGCGUG | -1.79 ± 0.088 | -0.855 ± 0.12
UAGCAGCAAUAUUACGUGAA | -1.71 ± 0.16 | -0.671 ± 0.18

Sequence | self-splicing fitness (ln) (30 °C) | self-splicing fitness (ln) (37 °C)
GAACAGCAAUAUUACGGUAG | -2.81 ± 0.12 | -1.87 ± 0.14
UGCAAGCAAUAUUACGGUGA | -0.55 ± 0.068 | 0.00833 ± 0.086
AAGAAGCAAUAUUACGGGAU | -3.22 ± 0.22 | -1.77 ± 0.18
GAGUAGCAAUAUUACGCUCG | -1.88 ± 0.28 | -0.561 ± 0.29
GAGAAGCAAUAUUACGUCCG | -1.48 ± 0.091 | -0.864 ± 0.1
GGUCAGCAAUAUUACGCAGA |  | -2.72 ± 0.33
AUUAAGCAAUAUUACGAAGC | -3.3 ± 0.25 | -2.52 ± 0.31
GUUCAGCAAUAUUACGGGCA |  | -1.11 ± 0.34
ACUAAGCAAUAUUACGGUCU | -1.45 ± 0.072 | -0.907 ± 0.082
UUGGAGCAAUAUUACGCUCA | -1.16 ± 0.15 | -1.53 ± 0.24
GCCCAGCAAUAUUACGGCAA | -2.55 ± 0.19 | -0.273 ± 0.11
UCUAAGCAAUAUUACGACGU | -0.257 ± 0.087 | -0.334 ± 0.11
CGUAAGCAAUAUUACGCAAU | -3.61 ± 0.24 | -2.64 ± 0.23
AAGCAGCAAUAUUACGGAUG | -3.17 ± 0.2 | -2.57 ± 0.2
ACACAGCAAUAUUACGAACG | -0.869 ± 0.048 | -0.185 ± 0.068
UCGUAGCAAUAUUACGUGAU | -2.2 ± 0.2 | -1.48 ± 0.46
AUUAAGCAAUAUUACGAUGU | -0.608 ± 0.07 | -0.0076 ± 0.084
GCGGAGCAAUAUUACGUAUG | -3.28 ± 0.31 | -2.58 ± 0.41
UGAUAGCAAUAUUACGCUCG | -0.235 ± 0.13 | 0.0592 ± 0.21
GUAUAGCAAUAUUACGUAUC | -2.07 ± 0.18 | -0.978 ± 0.2
GCACAGCAAUAUUACGCAUU | -0.442 ± 0.064 | 0.276 ± 0.078
UGUGAGCAAUAUUACGGGCG | -0.245 ± 0.1 | 0.233 ± 0.16
GGGAAGCAAUAUUACGAUCU | -0.627 ± 0.27 | -0.134 ± 0.24
